Measured values: PMC8694623 (Science Advances, 2021)

B1: S. cerevisiae Atm1-Strep (ABC transporter of mitochondria 1), wild type (natural protein, UniProt P40416 92-690, looked up)
chain: LKDLFRYIWPKGNNKVRIRVLIALGLLISAKILNVQVPFFFKQTIDSMNIAWDDPTVALPAAIGLTILCYGVARFGSVLFGELRNAVFAKVAQNAIRTVSLQTFQHLMKLDLGWHLSRQTGGLTRAMDRGTKGISQVLTAMVFHIIPISFEISVVCGILTYQFGASFAAITFSTMLLYSIFTIKTTAWRTHFRRDANKADNKAASVALDSLINFEAVKYFNNEKYLADKYNGSLMNYRDSQIKVSQSLAFLNSGQNLIFTTALTAMMYMGCTGVIGGNLTVGDLVLINQLVFQLSVPLNFLGSVYRDLKQSLIDMETLFKLRKNEVKIKNAERPLMLPENVPYDITFENVTFGYHPDRKILKNASFTIPAGWKTAIVGSSGSGKSTILKLVFRFYDPESGRILINGRDIKEYDIDALRKVIGVVPQDTPLFNDTIWENVKFGRIDATDEEVITVVEKAQLAPLIKKLPQGFDTIVGERGLMISGGEKQRLAIARVLLKNARIMFFDEATSALDTHTEQALLRTIRDNFTSGSRTSVYIAHRLRTIADADKIIVLDNGRVREEGKHLELLAMPGSLYRELWTIQEDLDHLENELKDQQEL
B2: Atm1-L657 truncation mutant (residues 92 to 656), C-terminally Strep-tagged (domain or fragment, S. cerevisiae, UniProt P40416 92-656, looked up)
chain: LKDLFRYIWPKGNNKVRIRVLIALGLLISAKILNVQVPFFFKQTIDSMNIAWDDPTVALPAAIGLTILCYGVARFGSVLFGELRNAVFAKVAQNAIRTVSLQTFQHLMKLDLGWHLSRQTGGLTRAMDRGTKGISQVLTAMVFHIIPISFEISVVCGILTYQFGASFAAITFSTMLLYSIFTIKTTAWRTHFRRDANKADNKAASVALDSLINFEAVKYFNNEKYLADKYNGSLMNYRDSQIKVSQSLAFLNSGQNLIFTTALTAMMYMGCTGVIGGNLTVGDLVLINQLVFQLSVPLNFLGSVYRDLKQSLIDMETLFKLRKNEVKIKNAERPLMLPENVPYDITFENVTFGYHPDRKILKNASFTIPAGWKTAIVGSSGSGKSTILKLVFRFYDPESGRILINGRDIKEYDIDALRKVIGVVPQDTPLFNDTIWENVKFGRIDATDEEVITVVEKAQLAPLIKKLPQGFDTIVGERGLMISGGEKQRLAIARVLLKNARIMFFDEATSALDTHTEQALLRTIRDNFTSGSRTSVYIAHRLRTIADADKIIVLDNGRVREEGKH

How the values were obtained:
cryo-EM structure = molecular target: the molecule itself; test: cryo-EM structure
negative-stain EM = molecular target: the molecule itself; test: negative-stain EM

Protein | binding result (cryo-EM structure) | binding result (negative-stain EM)
B1 | binds | 
B2 |  | binds
